Measured values reported in PMC4917896, “RNA binding proteins regulate anabolic and catabolic gene expression in chondrocytes”.

B1: P6M (probe 6, AUUUA to AGGGA) (ssRNA)
RNA: GGGGUUAAAUUAUGUUCUUAACUGUAACCAGUUUUUUUUUAGGGAUCUCUUUAAUCUUUUUUUAUUAUUAAAAGCAAGUUUC
B2: P5M (probe 5, AUUUA to AGGGA) (ssRNA)
RNA: GGGAGCAGUUAACCUUCAAGACAUUCCACUUGCUAAAAUUAGGGAUUUUGUAAGGAGAGGUUUUAAUUAAAACAAAAAAAAA

Target: TTP (tristetraprolin), GST-TTP (UniProt P26651 1-326)
Experiment: EMSA; 10 mM Tris-HCl pH 7.5, 50 mM KCl, 1 mM DTT, 5% glycerol, 500 ug/ml tRNA, 40 ng probe in 20 ul, 20 min at 4 C (stated for lysate EMSA); 6% native PAGE on ice
Conditions: protein: commercial; (GST fusion); label: 3' biotin

TTP (tristetraprolin), GST-TTP, sequence (P26651 whole entry): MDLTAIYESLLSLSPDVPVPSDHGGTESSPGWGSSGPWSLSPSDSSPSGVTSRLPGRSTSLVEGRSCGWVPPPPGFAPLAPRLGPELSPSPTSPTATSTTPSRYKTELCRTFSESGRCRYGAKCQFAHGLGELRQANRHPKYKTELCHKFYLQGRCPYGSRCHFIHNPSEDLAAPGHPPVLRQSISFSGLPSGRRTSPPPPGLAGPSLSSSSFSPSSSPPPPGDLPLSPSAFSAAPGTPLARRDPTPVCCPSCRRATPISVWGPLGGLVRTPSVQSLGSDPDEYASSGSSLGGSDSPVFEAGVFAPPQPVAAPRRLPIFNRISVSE

Binder	binding result
B1	no binding
B2	no binding
